Article PMC4069103, “Computational Design of a pH Stable Enzyme: Understanding Molecular Mechanism of Penicillin Acylase's Adaptation to Alkaline Conditions” (PLoS ONE, 2014)

Substrate: O=C(Cc1ccccc1)Nc1ccc([N+](=O)[O-])c(C(=O)O)c1
Test: purified protein
Type: biochemical, Escherichia coli
Conditions: pH 7.5, 25°C, 10 mM phosphate, 0.1 M KCl, hydrolysis

B1: penicillin acylase from Escherichia coli (EcPA) (Escherichia coli) (protein)
chain 1: EQSSSEIKIVRDEYGMPHIYANDTWHLFYGYGYVVAQDRLFQMEMARRSTQGTVAEVLGKDFVKFDKDIRRNYWPDAIRAQIAALSPEDMSILQGYADGMNAWIDKVNTNPETLLPKQFNTFGFTPKRWEPFDVAMIFVGTMANRFSDSTSEIDNLALLTALKDKYGVSQGMAVFNQLKWLVNPSAPTTIAVQESNYPLKFNQQNSQTA
chain 2: SNMWVIGKSKAQDAKAIMVNGPQFGWYAPAYTYGIGLHGAGYDVTGNTPFAYPGLVFGHNGVISWGSTAGFGDDVDIFAERLSAEKPGYYLHNGKWVKMLSREETITVKNGQAETFTVWRTVHGNILQTDQTTQTAYAKSRAWDGKEVASLLAWTHQMKAKNWQEWTQQAAKQALTINWYYADVNGNIGYVHTGAYPDRQSGHDPRLPVPGTGKWDWKGLLPFEMNPKVYNPQSGYIANWNNSPQKDYPASDLFAFLWGGADRVTEIDRLLEQKPRLTADQAWDVIRQTSRQDLNLRLFLPTLQAATSGLTQSDPRRQLVETLTRWDGINLLNDDGKTWQQPGSAILNVWLTSMLKRTVVAAVPMPFDKWYSASGYETTQDGPTGSLNISVGAKILYEAVQGDKSPIPQAVDLFAGKPQQEVVLAALEDTWETLSKRYGNNVSNWKTPAMALTFRANNFFGVPQAAAEETRHQAEYQNRGTENDMIVFSPTTSDRPVLAWDVVAPGQSGFIAPDGTVDKHYEDQLKMYENFGRKSLWLTKQDVEAHKESQEVLHVQR
notes: heterodimer of alpha (209 residues) and beta (557 residues) chains matured from one pac precursor; modified pBR322 vector with cat gene, expressed in E. coli TG-1, osmotic shock, hydrophobic chromatography; no tag mentioned
Which results are given for B1?
Km: 25.0 ± 0.8 µM; kcat: 25 ± 1.4 s⁻¹; kcat/Km: 1e+06 ± 90000 M⁻¹ s⁻¹
